Measured values as given in patent US7510708B2, “Disruption of the REG pathway” (Washington University, priority 2003, dated 2009).

B1: Reg Iα: Recombinant human Reg Iα protein expressed by fermentation in Pichia pastoris (protein)
chain: QEAQTELPQARISCPEGTNAYRSYCYYFNEDRETWVDADLYCQNMNSGNLVSVLTQAEGAFVASLIKESGTDDFNVWIGLHDPKKNRRWHWSSGSLVSYKSWGIGAPSSVNPGYCVSLTSSTGFQKWKDVPCEDKFSFVCKFKN
B2: Reg III: Recombinant human Reg III (pancreatitis-associated protein) expressed by fermentation in Pichia pastoris (protein)
chain: EEPQRELPSARIRCPKGSKAYGSHCYALFLSPKSWTDADLACQKRPSGNLVSVLSGAEGSFVSSLVKSIGNSYSYVWIGLHDPTQGTEPNGEGWEWSSSDVMNYFAWERNPSTISSPGHCASLSRSTAFLRWKDYNCNVRLPYVCKFTD

Tests used:
intestinal stem cells = experiment: Survival of intestinal stem cells following 13 Gy radiation; format: in vivo, mouse; details: pretreatment, FIGS. 27 and 28
Protocol: Gamma irradiation is a well-defined pro-apoptotic stimulus and is a commonly applied experimental approach to study intestinal epithelial cell death. […] At 6 hours marked apoptosis is seen in the crypt epithelium. By 24 hours, there is a loss of epithelial proliferation. Regenerating crypts, counted at 84 hours, are reflective of a single surviving stem cell.
(§1) Stem cells and their immediate progeny are the only cells in the normal epithelium that are capable of continued proliferation. In this context, epithelial malignancies may reflect a form of disordered stem cell biology. FIGS. 27 and 28 show the effect of exogenous Reg proteins on the survival of intestinal stem cells following 13 Gy radiation. […] We therefore conducted experiments to see if exogenous Reg would promote the survival of colorectal adenocarcinoma cells in response to gamma radiation.

[1] = system: colorectal adenocarcinoma cells; experiment: Survival of colorectal adenocarcinoma cells in response to gamma radiation; format: cell-based; details: nanomolar concentrations, FIGS. 31 and 32
Excerpt: as §1

HT29 = experiment: Caspase activity in HT29 lysates following oxidative stress (hydrogen peroxide); format: cell-based; details: nanomolar concentrations; HT29 lysates after hydrogen peroxide; FIG. 21
Akt = experiment: Activation of the Akt pathway by phosphorylation in cancer cell lines; format: cell-based; details: nanomolar concentrations; HCT116, HT29, N87 cells; FIGS. 19 and 20
Excerpt: One kinase responsible for protection against apoptosis in tumor cells may be Akt/protein kinase B. Akt, also referred to as Rac, regulates the balance between survival and apoptosis by several mechanisms. Akt may regulate the expression of anti-apoptotic proteins. Because of the effect of Reg on the regulation of Bcl-2 (and Bcl-xl, discussed later), we examined the effects of recombinant Reg IV and Reg Iα on the activation of the Akt pathway. […] Activated Akt has known pleiotropic effects (beyond effects on Bcl-2 family gene expression), reducing the amount of apoptosis occurring either at baseline or in response to a known proapoptotic stimulus.

HT-29 cells = experiment: Bcl-xl and Bcl-2 expression after recombinant Reg Iα treatment; format: cell-based; details: FIG. 29 and 30
Protocol: Additional colorectal cell lines were also examined to determine if this was a generalized effect on gastrointestinal cells. […] To determine if the increases in Bcl-2 mRNA also were associated with changes in Bcl-2 protein expression, Western blotting was performed on cell lysates taken at various times following Reg treatment.

[2] = system: colon cancer cell lines (e.g. HT29, SW480, T84); experiment: Upregulation of mRNA of other Reg family members in colon cancer cell lines; format: cell-based; details: FIG. 33
Excerpt: One explanation for this finding could be that a single Reg protein can upregulate expression of other members of the Reg family.

| Molecule | stem cell survival (intestinal stem cells) | cell survival from gamma radiation [1] | caspase activity / protection against peroxide-induced apoptosis (HT29) | activation by phosphorylation of Akt (Akt) | expression of Bcl-xl and Bcl-2 (HT-29 cells) | mRNA coding for other members of the Reg gene family [2] |
| --- | --- | --- | --- | --- | --- | --- |
| B1 | significantly increased stem cell survival | improved cell survival | reduced caspase activity | rapid activation by phosphorylation of Akt | increased expression of Bcl-xl and Bcl-2 | upregulation of mRNA coding for other members of the Reg gene family |
| B2 | – | – | – | – | – | upregulation of mRNA coding for other members of the Reg gene family |
